The source of these data is PMC8809517, “Cofactor-independent RNA editing by a synthetic S-type PPR protein”.

Experiment in all cases: high-throughput RNA pulldown from lysate on Ni-NTA beads; HRP: 50 mM Tris pH 8, 150 mM NaCl, 1 mM beta-mercaptoethanol, 50 ug/ml BSA, 3 ug/ml yeast RNA, 0.5% heparin; ITC and FP: Tris pH 8, 200 mM KCl, 5% glycerol; MST: 50 mM Tris pH 8, 200 mM NaCl, 1 mM DTT, BSA, heparin, 0.05% Tween 20
Common to all, as to conditions: tags: N-terminal His-eGFP

Data set [1] addresses T1, GFP-9S library array, motif 4 ND N98Y;D124E (synthetic construct, N98Y;D124E).
T1 chain: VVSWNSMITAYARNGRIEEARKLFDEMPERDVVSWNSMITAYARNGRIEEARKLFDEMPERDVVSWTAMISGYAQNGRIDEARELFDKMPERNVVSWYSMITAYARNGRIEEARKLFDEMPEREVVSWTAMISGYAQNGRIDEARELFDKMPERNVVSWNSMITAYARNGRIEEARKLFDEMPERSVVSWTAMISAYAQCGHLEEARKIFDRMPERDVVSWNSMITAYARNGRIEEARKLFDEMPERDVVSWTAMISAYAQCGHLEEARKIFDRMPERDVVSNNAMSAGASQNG

Data set [2] addresses T2, GFP-9S library array, motif 4 ND N98Y;D124G (synthetic construct, N98Y;D124G).
T2 chain: T1 chain with E124G

Data set [3] has as its target T3, GFP-9S library array, motif 4 ND D124F (synthetic construct, D124F).
T3 chain: T1 chain with Y98N, E124F

Data set [4] has as its target T4, GFP-9S library array, motif 4 ND N98C;D124T (synthetic construct, N98C;D124T).
T4 chain: T1 chain with Y98C, E124T

Data set [5] addresses T5, GFP-9S library array, motif 4 ND N98P;D124H (synthetic construct, N98P;D124H).
T5 chain: T1 chain with Y98P, E124H

Positions count from the first letter of the chain named.

For the molecule AUUAGACGUGA (ssRNA) [Cy5-rpoA-G], the dissociation constant (Kd) (as a rule, the concentration at which binding is half-saturated) in data set [1] (label: 5' Cy5) was found to be 169 nM; in data set [2] (label: 5' Cy5), 177 nM; in data set [3] (label: 5' Cy5), 140 nM; in data set [4] (label: 5' Cy5), 85.3 nM; in data set [5] (label: 5' Cy5) it was 143 nM.
Consider AUUACACGUGA (ssRNA) [Cy5-rpoA], for which the Kd in data set [1] (label: 5' Cy5) came out at 128 nM; in data set [2] (label: 5' Cy5), 183 nM; in data set [3] (label: 5' Cy5) it was 109 nM; in data set [4] (label: 5' Cy5), 245 nM; in data set [5] (label: 5' Cy5) it was 94.4 nM.
On to AUUAAACGUGA (ssRNA) [IR-rpoA-A], for which the Kd worked out at 488 nM in data set [1] (label: 5' IRDye 800CW); 567 nM in data set [2] (label: 5' IRDye 800CW); 202 nM in data set [3] (label: 5' IRDye 800CW); 150 nM in data set [4] (label: 5' IRDye 800CW); 332 nM in data set [5] (label: 5' IRDye 800CW).
The like results for AUUAUACGUGA (ssRNA) [IR-rpoA-U] were, in that order, 286 nM, 211 nM, 63.9 nM, 155 nM and 143 nM.
